Assay results: article PMC2654718 (Biochemistry, 2009)
Ends that are not written are not given here.

Each binder was assayed against MBP-VDR-LBDmt (human) (assay: fluorescence polarisation).

| Kd [µM] | Binder |
| --- | --- |
| > 20 | C(Texas Red maleimide)KVSQNPILTSLLQITGNGG [DRIP205-1 peptide, Texas Red labeled] |
| > 20 | C(Texas Red maleimide)AASKHKQLSELLRSGSSPN [P300 peptide, Texas Red labeled] |
| < 20 | C(Texas Red maleimide)QAANNSLLLHLLKSQTIPK [RIP140-5 peptide, Texas Red labeled] |
